Numbering of substitutions follows the chain as printed.
B1: unnamed (protein)
chain: MLSFLRSTGRPERRRASLPALLLFTAALVASGLTAAPAAQAADNPYQRGPDPTNASIEAATGPFAVGTQPIVGASGFGGGQIYYPTDTSQTYGAVVIVPGFISVWAQLNWLGPRLASQGFVVIGIETSVITDLPDPRGDQALAALDWATTRSPVASRIDRTRLAAAGWSMGGGGLRRAALQRPSLKAIVGMAPWNGERNWSAVTVPTLFFGGSSDAVASPNDHAKPFYNSITRAEKDYIELRNADHFFPNSANTTMAKYFISWLKRWVDNDTRYTQFLCPGPSTGLFAPVSASMNTCPF
B2: unnamed (protein)
chain: B1 chain with G196L, N250T
B3: unnamed (protein)
chain: B1 chain with N250T, A252N
B4: unnamed (protein)
chain: B1 chain with R233A, N250T
B5: unnamed (protein)
chain: B1 chain with P136S, N250T
B6: unnamed (protein)
chain: B1 chain with Q107S, N250T
B7: unnamed (protein)
chain: B1 chain with G76C, A143C, N250T
B8: unnamed (protein)
chain: B1 chain with L133Y, N250T
B9: unnamed (protein)
chain: B1 chain with V129T, L180C, R198K, A202C, R242C, N250T, S291C
B10: unnamed (protein)
chain: B1 chain with A192T, N250T
B11: unnamed (protein)
chain: B1 chain with A155R, L180C, A202C, R242C, N250T, S291C
B12: unnamed (protein)
chain: B1 chain with R157A, N250T
B13: unnamed (protein)
chain: B1 chain with R198K, N250T
B14: unnamed (protein)
chain: B1 chain with T86R, N250T
B15: unnamed (protein)
chain: B1 chain with R242C, N250T, S291C
B16: unnamed (protein)
chain: B1 chain with N109A, N250T

substrate: pcPET (post-consumer); assay: Proxy for plastic degradation [Released monomer concentration (HPLC/LC-MS) (TPA+MHET+BHET)]; details: pH 9; 40 °C; 24 h

Protein	Proxy for plastic degradation [µM]
B1	10
B2	520
B3	530
B4	715
B5	680
B6	620
B7	295
B8	405
B9	1200
B10	495
B11	948
B12	225
B13	950
B14	485
B15	890
B16	720

same assay, conditions: pH 9; 60 °C; 6 h

Protein	Proxy for plastic degradation [µM]
B9	1020
B11	360
